From patent US20200113997A1 come the findings set out here.

The target of the experiment is Man9-V3 glycopeptide (HIV-1 (clade B JRFL mini-V3)). Put plainly: BLI, biotinylated peptide on streptavidin sensor, bivalent avidity model. A general note: Biolayer interferometry detects binding as a change in optical thickness at a sensor tip.

Consider DH270.1 (antibody), for which the Kd was determined as 331 nM.
